Key:
[1] = biological target: the molecule itself; test: cross-linking; BS3 at protein/cross-linker ratios of 1:10 and 1:60, protein 25-250 uM, read by denaturing SDS-PAGE
[2] = biological target: the molecule itself; test: SAXS; batch SAXS at 2.5, 5 and 10 mg/ml; ensemble optimization method (EOM) with pools of dimers, hexamers and dodecamers

B1: Hsp21, the 21-kDa chloroplast-localized small heat-shock protein of Arabidopsis thaliana (natural protein)
chain: not shown
notes: N-terminal peptide printed as 1MQDQR5, IXVXI motif 179IDVQI183, rigid bodies of residues 83-184. numbers count on: the mature protein; Dodecamer of two trimer-of-dimer discs; The deposited model lacks part of the NTR; also called Hsp21 WT; Hsp21WT; source: E. coli ER2566, purified (ammonium sulfate precipitation, SEC); copies: 12
stoichiometry N [1]: 12
stoichiometry N [2]: 6

From article PMC5427286, “Structural model of dodecameric heat-shock protein Hsp21: Flexible N-terminal arms interact with client proteins while C-terminal tails maintain the dodecamer and chaperone activity” (The Journal of Biological Chemistry, 2017)
